# Publication doi:10.64898/2025.12.24.696318, “TRAF6 coiled-coil domain mediates its trimerization” (bioRxiv, 2025)
# Target: the molecule itself
# Test: SEC-MALS; Superdex 200 Increase 10/300; 20 mM Tris-HCl pH 8.0, 150 mM NaCl; 0.5 mL/min; His6-TRAF6-CC at 1 and 6.57 mg/ml, tagless TRAF6-CC at 0.934 and 1.57 mg/ml; calibrated with BSA
row,Protein,stoichiometry N
1,"His6-THROM-TRAF6-CC (human TRAF6 coiled-coil domain, residues 288-348, with N-terminal His6 tag and thrombin cleavage site) (domain or fragment, UniProt Q9Y4K3 288-348, looked up, TRAF6, human, UniProt Q9Y4K3, coiled-coil domain, residues Y288-Q348; Cloned in pET28a between NdeI and XhoI; a thrombin cleavage site lies between the His6 tag and the domain; Printed mass of the tagged monomer is 9.61 kDa; also called His6-TRAF6-CC; hexahistidine-tagged TRAF6-CC; source: E. coli BL21-CodonPlus (DE3) RIPL, purified (Ni-NTA, SEC); not shown: His6, N-terminal, kept) YISEVRNFQETIHQLEGRLVRQDHQIRELTAKMETQSMYVSELKRTIRTLEDKVAEIEAQQ",3
2,"tagless TRAF6-CC (human TRAF6 coiled-coil domain, residues 288-348, His6 tag removed by thrombin) (domain or fragment, UniProt Q9Y4K3 288-348, looked up, TRAF6, human, UniProt Q9Y4K3, coiled-coil domain, residues Y288-Q348; Made from m1 by bovine thrombin; source: E. coli BL21-CodonPlus (DE3) RIPL, purified (Ni-NTA, thrombin cleavage, reverse Ni-NTA, SEC); not shown: His6, N-terminal, cleaved) YISEVRNFQETIHQLEGRLVRQDHQIRELTAKMETQSMYVSELKRTIRTLEDKVAEIEAQQ",3
